The data set is described as follows: blood clearance in the swine model. The conditions noted are these: in vivo. On the procedure: Annexin V-galactose was radiolabeled with technetium-99m using a diamide dimercaptide (N2S2) chelate as described by Kasina et. al., J. Nucl. Med. 32: 1445-51, 1991. The preformed active ester chelate was diluted with 2.0 ml water and purified before conjugation to annexin V-galactose using a modified conditioned C-18 column (commercially available from J.T. Baker), as described by Fritzberg et. al., Proc. Natl. Acad. Sci. USA 85: 4025-29, 1988, washing with 2.0 ml water eight times followed by drying the column for 5 min and eluting with 100% acetonitrile. The solvent was removed under a steady stream of N2. Then 0.15 ml of PBS, 0.35 ml of annexin V-galactose (4.7:1 galactose:annexin V) at 1.0 mg/ml, and 0.2 ml of 0.2M bicarbonate buffer (pH 10.0) were added for conjugation to Tc-99m-N2S2-TFP ester. […] Fractions of 1.0 ml were collected, and fractions containing annexin V were pooled. Protein concentration was determined by UV absorption at 280 nm. […] The ITLC sheets were cut into two halves, and each half was counted in a gamma counter or a dose calibrator. […] An animal model, as previously described in Example III, was employed to evaluate blood clearance of the molecules.

For the substance “Tc-99m-annexin V: annexin V radiolabeled with Tc-99m by a diamide dimercaptide N2S2 chelate (Example I)”, the “%ID/g a” value is reported as “a = 0.0389 %ID/g”, the “%ID/g b” value is “b = 0.0300 %ID/g”, the t1/2 a entry is recorded as “a = 9.6 min” and the t1/2 b entry was “b = 46 min”.
